The values below come from publication doi:10.1101/282715 (bioRxiv, 2018).

Usually stoichiometry N stands for a count of units in the complex or per binding partner.

The data set deals with the molecule itself. As to the kind of experiment: cryo-EM structure.

B1: mouse TRPC4 (residues a.a. 1-758, excluding a.a. 759-974) (natural protein, UniProt Q9QUQ5 1-758, looked up)
chain: MAQFYYKRNVNAPYRDRIPLRIVRAESELSPSEKAYLNAVEKGDYASVKKSLEEAEIYFKININCIDPLGRTALLIAIENENLELIELLLSFNVYVGDALLHAIRKEVVGAVELLLNHKKPSGEKQVPPILLDKQFSEFTPDITPIILAAHTNNYEIIKLLVQKGVSVPRPHEVRCNCVECVSSSDVDSLRHSRSRLNIYKALASPSLIALSSEDPFLTAFQLSWELQELSKVENEFKSEYEELSRQCKQFAKDLLDQTRSSRELEIILNYRDDNSLIEEQSGNDLARLKLAIKYRQKEFVAQPNCQQLLASRWYDEFPGWRRRHWAVKMVTCFIIGLLFPVFSVCYLIAPKSPLGLFIRKPFIKFICHTASYLTFLFLLLLASQHIDRSDLNRQGPPPTIVEWMILPWVLGFIWGEIKQMWDGGLQDYIHDWWNLMDFVMNSLYLATISLKIVAFVKYSALNPRESWDMWHPTLVAEALFAIANIFSSLRLISLFTANSHLGPLQISLGRMLLDILKFLFIYCLVLLAFANGLNQLYFYYEETKGLSCKGIRCEKQNNAFSTLFETLQSLFWSIFGLINLYVTNVKAQHEFTEFVGATMFGTYNVISLVVLLNMLIAMMNNSYQLIADHADIEWKFARTKLWMSYFEEGGTLPTPFNVIPSPKSLWYLVKWIWTHLCKKKMRRKPESFGTIGRRAADNLRRHHQYQEVMRNLVKRYVAAMIREAKTEEGLTEENVKELKQDISSFRFEVLGLLRGSK
Consider B1, for which the “stoichiometry N” value was 4.
